Data published in patent publication US20070178531A1 (BIOCHECK, published 2007).

Key:
Human Id2: Histidine [1] = molecular target: T1, Human Id2: Histidine (human, UniProt Q02363 1-134, limits assumed); assay: ELISA, Ab 0.005 µg/ml
T1 construct: Fusion protein made in E. coli from vector pGW07; also called h-Id2: His; not shown: His tag
T1 sequence (looked up): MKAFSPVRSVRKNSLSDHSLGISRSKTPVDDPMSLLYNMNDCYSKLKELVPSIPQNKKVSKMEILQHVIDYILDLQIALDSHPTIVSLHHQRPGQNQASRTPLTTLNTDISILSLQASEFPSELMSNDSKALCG

Human Id1: Histidine [2] = molecular target: T2, Human Id1: Histidine (human, UniProt P41134 1-155, limits assumed); assay: ELISA, Ab 0.005 µg/ml
T2 construct: Fusion protein made in E. coli from vector pGW07; also called h-Id1: his; not shown: His tag
T2 sequence (looked up): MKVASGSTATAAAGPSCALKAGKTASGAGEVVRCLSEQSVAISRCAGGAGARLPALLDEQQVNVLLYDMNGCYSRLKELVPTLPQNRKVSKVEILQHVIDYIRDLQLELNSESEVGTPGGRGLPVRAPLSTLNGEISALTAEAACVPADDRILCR

Mouse Id3: Histidine [3] = molecular target: T3, Mouse Id3: Histidine (mouse, UniProt P41133 1-119); assay: ELISA, Ab 0.005 µg/ml
T3 construct: Fusion protein made in E. coli from vector pGW07; also called m-Id3: His; Mouse Id3 (coated wells); not shown: His tag
T3 sequence: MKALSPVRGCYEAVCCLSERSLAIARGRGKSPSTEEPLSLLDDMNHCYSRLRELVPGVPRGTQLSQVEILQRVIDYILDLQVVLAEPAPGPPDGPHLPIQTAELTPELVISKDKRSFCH

Human Id3: Histidine [4] = molecular target: T4, Human Id3: Histidine (human, UniProt Q02535 1-119 at identity 1.00)); assay: ELISA, Ab 0.005 µg/ml
T4 construct: Fusion protein made in E. coli from vector pGW07; also called h-Id3: His; Human Id3 (coated wells); not shown: His tag
T4 chain: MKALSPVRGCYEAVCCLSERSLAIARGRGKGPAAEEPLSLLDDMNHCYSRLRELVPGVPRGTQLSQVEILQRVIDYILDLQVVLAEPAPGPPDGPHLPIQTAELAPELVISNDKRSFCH

Human Id2: Histidine [5] = molecular target: T1, Human Id2: Histidine; assay: ELISA, Ab 0.100 µg/ml
Mouse Id2: Histidine = molecular target: T5, Mouse Id2: Histidine (mouse, UniProt P41136 1-134, limits assumed); assay: ELISA, Ab 0.100 µg/ml
T5 construct: Fusion protein made in E. coli from vector pGW07; also called m-Id2: His; not shown: His tag
T5 sequence (looked up): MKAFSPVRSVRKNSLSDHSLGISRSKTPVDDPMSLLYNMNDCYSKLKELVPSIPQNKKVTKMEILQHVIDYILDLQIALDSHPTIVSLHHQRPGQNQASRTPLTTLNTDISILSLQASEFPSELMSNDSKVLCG

Human Id1: Histidine [6] = molecular target: T2, Human Id1: Histidine; assay: ELISA, Ab 0.100 µg/ml
Mouse Id1: Histidine = molecular target: T6, Mouse Id1: Histidine (mouse, UniProt P20067-2 1-148, limits assumed); assay: ELISA, Ab 0.100 µg/ml
T6 construct: Fusion protein made in E. coli from vector pGW07; also called m-Id1-His; not shown: His tag
T6 sequence (looked up): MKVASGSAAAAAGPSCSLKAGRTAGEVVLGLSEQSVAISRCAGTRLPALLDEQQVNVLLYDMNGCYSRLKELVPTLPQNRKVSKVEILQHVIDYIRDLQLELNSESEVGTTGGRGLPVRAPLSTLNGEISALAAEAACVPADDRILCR

Mouse Id3: Histidine [7] = molecular target: T3, Mouse Id3: Histidine; assay: ELISA, Ab 0.100 µg/ml
Human Id3: Histidine [8] = molecular target: T4, Human Id3: Histidine; assay: ELISA, Ab 0.100 µg/ml

B1: rabbit monoclonal anti-mouse/human Id3, clone #BCH-4/#6-1 (antibody, V domains shown)
VH: QSVEESGGRLVTPGTPLTLTCTASGFSLSNVYIHWVRQAPGKGLEWIGYISDGDTARYATWAKGRFTISKTSSTTVNLKMTSLTTEDTATYFCARQGFNIWGPGTLVTVSL
VL: AVLTQTPSPVSAAVGGTVSISCQSSQSVWNNNWLSWFQQKPGQPPKLLIYETSKLESGVPSRFKGSGSGTQFTLTISDVQCDDAATYYCLGGYWTTSDNNVFGGGTEVVVK
notes: Rabbit IgG from a rabbit hybridoma; also called m/h Id3 MoAb 6-1
Human Id2: Histidine [1]
  A450: 0.076 A450
Human Id1: Histidine [2]
  A450: 0.075 A450
Mouse Id3: Histidine [3]
  A450: 0.295 A450
Human Id3: Histidine [4]
  A450: 0.248 A450
Human Id2: Histidine [5]
  A450: 0.058 A450
Mouse Id2: Histidine
  A450: 0.067 A450
Human Id1: Histidine [6]
  A450: 0.083 A450
Mouse Id1: Histidine
  A450: 0.085 A450
Mouse Id3: Histidine [7]
  A450: 2.42 A450
Human Id3: Histidine [8]
  A450: 1.98 A450
